Experimental data reported in patent US20140294834A1.

Target: his tagged cMET (UniProt P08581)
Experiment: BLI (Fortebio Octet), antibody loaded on Protein A tips, his tagged cMET in solution, 1:1 fit

Kd: 1.2 nM
Substance: Onartuzumab (antibody)
